One series addresses T1, ArlR full length (Staphylococcus aureus, UniProt Q9KJN4 1-219).
T1 sequence: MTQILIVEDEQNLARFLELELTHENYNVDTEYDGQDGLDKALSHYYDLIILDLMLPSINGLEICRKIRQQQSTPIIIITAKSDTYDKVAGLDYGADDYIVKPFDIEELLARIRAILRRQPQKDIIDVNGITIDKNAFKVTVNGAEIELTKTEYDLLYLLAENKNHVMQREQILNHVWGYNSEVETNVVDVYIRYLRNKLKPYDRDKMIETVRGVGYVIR
The series can be described thus: EMSA.

The series “SEC” concerns the molecule itself. The series can be described thus: SEC.

The results in this text go back to PMC6868441 (Nucleic Acids Research, 2019).

B1: ArlR-BdDNA-wt 24 bp (dsDNA)
DNA 1: TGATAGTATTTTAATTTGCAATAG
DNA 2: CTATTGCAAATTAAAATACTATCA
With B1, the binding result in the series with ArlR full length is given as “binds”.

B2: ArlR receiver domain (amino acids 1–121) (domain or fragment, S. aureus, UniProt Q9KJN4 1-121, looked up)
chain: MTQILIVEDEQNLARFLELELTHENYNVDTEYDGQDGLDKALSHYYDLIILDLMLPSINGLEICRKIRQQQSTPIIIITAKSDTYDKVAGLDYGADDYIVKPFDIEELLARIRAILRRQPQ
Take B2: the “stoichiometry N” value in “SEC” was found to be 2.

B3: Position 1,4&6 mutation 24 bp (dsDNA)
DNA 1: TGCTATTCTTTTAATTGGAAAGAG
DNA 2: CTCTTTCCAATTAAAAGAATAGCA
Take B3: the binding result with ArlR full length was “no binding”.
